Measured values published in article PMC7503845.

What was measured:
[1] = biological target: full length recombinant human active CK1 epsilon (CK1ε) (human) (UniProt P49674)
[2] = biological target: full length recombinant human active CK1 epsilon (CK1ε) (human) (UniProt P49674); remark: listed apart in the source
[3] = biological target: full length recombinant human active CK1 epsilon (CK1ε) (human) (UniProt P49674); remark: listed apart in the source
[4] = biological target: full length recombinant human active CK1 epsilon (CK1ε) (human) (UniProt P49674); remark: listed apart in the source

UniProt P49674, sequence (P49674 whole entry): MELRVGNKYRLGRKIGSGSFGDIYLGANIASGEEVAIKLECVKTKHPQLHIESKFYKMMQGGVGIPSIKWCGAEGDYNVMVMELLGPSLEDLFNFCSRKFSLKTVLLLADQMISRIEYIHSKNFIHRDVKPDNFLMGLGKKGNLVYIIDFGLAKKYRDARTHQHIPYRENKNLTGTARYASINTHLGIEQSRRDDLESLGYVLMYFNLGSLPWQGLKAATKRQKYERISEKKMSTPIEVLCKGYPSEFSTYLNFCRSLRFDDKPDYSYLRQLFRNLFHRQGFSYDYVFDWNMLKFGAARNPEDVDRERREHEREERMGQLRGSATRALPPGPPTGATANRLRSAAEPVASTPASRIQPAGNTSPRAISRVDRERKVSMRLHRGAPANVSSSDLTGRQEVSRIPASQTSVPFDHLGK

## dephosphorylated native casein mixture (Casein)
[1]
  Km^Casein of the kinase reaction at fixed ATP of 7.5, 15, 30 and 60 μM (4.6, 3.9, 4.8 and 4.0 μM): 4.8 µM
  kcat / Km^Casein of the kinase reaction at fixed ATP of 7.5, 15, 30 and 60 μM (2.5, 4.1, 6.3 and 10.8 min^-1 μM^-1): 180000 M⁻¹ s⁻¹

## recombinant human DDX3X wild-type (WT) (from UniProt O00571 1-662) (enzyme)
[2]
  Km of CK1ε for DDX3X in the kinase reaction (33P incorporation; DDX3X 0.06-1 μM, ATP fixed at 30 μM, 25 ng CK1ε, 15 min): 0.2 µM
[3]
  Km^DDX3X of the kinase reaction at fixed ATP of 15, 30, 60 and 120 μM (0.6, 0.5, 0.7 and 0.7 μM): 0.7 µM
  kcat / Km^DDX3X of the kinase reaction at fixed ATP of 15, 30, 60 and 120 μM (5.5, 8.4, 11.9 and 18.9 min^-1 μM^-1): 315000 M⁻¹ s⁻¹

B1: full length recombinant human disheveled 2 (Dvl2) (natural protein)
chain: MAGSSTGGGGVGETKVIYHLDEEETPYLVKIPVPAERITLGDFKSVLQRPAGAKYFFKSMDQDFGVVKEEISDDNARLPCFNGRVVSWLVSSDNPQPEMAPPVHEPRAELAPPAPPLPPLPPERTSGIGDSRPPSFHPNVSSSHENLEPETETESVVSLRRERPRRRDSSEHGAGGHRTGGPSRLERHLAGYESSSTLMTSELESTSLGDSDEEDTMSRFSSSTEQSSASRLLKRHRRRRKQRPPRLERTSSFSSVTDSTMSLNIITVTLNMEKYNFLGISIVGQSNERGDGGIYIGSIMKGGAVAADGRIEPGDMLLQVNDMNFENMSNDDAVRVLRDIVHKPGPIVLTVAKCWDPSPQAYFTLPRNEPIQPIDPAAWVSHSAALTGTFPAYPGSSSMSTITSGSSLPDGCEGRGLSVHTDMASVTKAMAAPESGLEVRDRMWLKITIPNAFLGSDVVDWLYHHVEGFPERREARKYASGLLKAGLIRHTVNKITFSEQCYYVFGDLSGGCESYLVNLSLNDNDGSSGASDQDTLAPLPGATPWPLLPTFSYQYPAPHPYSPQPPPYHELSSYTYGGGSASSQHSEGSRSSGSTRSDGGAGRTGRPEERAPESKSGSGSESEPSSRGGSLRRGGEASGTSDGGPPPSRGSTGGAPNLRAHPGLHPYGPPPGMALPYNPMMVVMMPPPPPPVPPAVQPPGAPPVRDLGSVPPELTASRQSFHMAMGNPSEFFVDVM
[4]
  Km^Dvl2 of the kinase reaction at fixed ATP of 7.5, 30, 60 and 120 μM (0.5, 1.1, 0.9 and 0.4 μM): 1.1 µM
  kcat / Km^Dvl2 of the kinase reaction at fixed ATP of 7.5, 30, 60 and 120 μM (76.4, 98.8, 159.3 and 261.7 min^-1 μM^-1): 4.36e+06 M⁻¹ s⁻¹
